In patent US9890400B2, “Method of production of 2,4-dihydroxybutyric acid” (ADISSEO FRANCE S.A.S., priority 2012, dated 2018):

Tested on: CC(C)(COP(=O)(O)OP(=O)(O)OC[C@H]1O[C@@H](n2cnc3c(N)ncnc32)[C@H](O)[C@@H]1OP(=O)(O)O)[C@@H](O)C(=O)NCCC(=O)NCCSC(=O)CCC(=O)O
Assay: Malyl-CoA reductase activity, reductive sense (Assay 1)
Format: biochemical, Porphyromonas gingivalis W83
Conditions: other: reductive sense, succinyl-CoA added directly, NADPH, pH 7.5, 37° C.
Method: NCBI references of the utilized mcr and sucD protein sequences, and the references for the corresponding natural and synthetic DNA sequences are listed in Table 2.
Expression and purification of Pg-SucD was carried out as described in Example 1 using plasmid pET28-Pgi-sucD.
Malyl-CoA reductase activity was assayed in the reductive and in the oxidative sense of the reaction employing Assay 1 or Assay 2, respectively.
Assay 1 (Reaction Scheme): glyoxylate+acetyl-CoA→malyl-CoA+acetate Malyl-CoA lyase: (L)-Malyl-CoA+NADPH→(L)-Malate semialdehyde+Coenzyme A+NADP Malyl-CoA reductase: Assay 2 (Reaction Scheme): (L)-Malate semialdehyde+Coenzyme A+NADP→(L)-Malyl-CoA+NADPH The reaction mixture according to Assay 1 contained 50 mM MOPS/KOH (pH 7.5), […], and appropriate amounts of purified malyl-CoA reductase or cell extract. Reactions were started by adding glyoxylate. Enzymatic assays were carried out at 37° C. in 96-well flat bottomed microtiter plates in a final volume of 250 μL. The reactions were followed by the characteristic absorption of NADPH at 340 nm (εNADPH=6.22 mM^−1 cm^−1) in a microplate reader (BioRad 680XR).

Porphyromonas gingivalis succinyl-CoA reductase (Pg-SucD), wild type, SEQ ID No. 10 (Porphyromonas gingivalis W83)
Km: 1000 µM
Vmax: 1 µmol/min/mg
